From patent publication EP1988097A1 (dated 2008) come the findings set out here.

For experiment [1], the target named is T1, P501S peptide on HLA-B*51:01:01 (human).
T1 peptide: ASACDVSVRV
As to the kind of experiment: cytokine release.

Experiment [2] concerns the target T2, P501S peptide on HLA-B*51:01:01 (human).
T2 peptide: SACDVSVRV
Kind of experiment: stated without data.

B1: TCR of the P501S-specific T cell clone 4E5 (TCR, V domains shown)
Valpha: AQKITQTQPGMFVQEKEAVTLDCTYDTSDQSYGLFWYKQPSSGEMIFLIYQGSYDEQNATEGRYSLNFQKARKSANLVISASQLGDSAMYFCAMREGAGGGNKLTFGTGTQLKVEL
Vbeta: ETGVTQTPRHLVMGMTNKKSLKCEQHLGHNAMYWYKQSAKKPLELMFVYSLEERVENNSVPSRFSPECPNSSHLFLHLHTLQPEDSALYLCASSQDRTSSSYEQYFGPGTRLTVT
Take B1: the binding result in experiment [1] and in experiment [2] was “recognises” throughout.
